According to patent publication US20020159976A1:

Columns and labels:
[1] = target: T1, casein peptide αs1-casein(1-17) (UniProt P02662)
T1 sequence: RPKHPIKHQGLPQEVLN

[2] = target: fibronectin from human plasma (human) (UniProt P02751); assay: dot blot, ~1 ug ligand on nitrocellulose, 125I-labelled binder, autoradiograph density divided by Ponceau S density, mean of two dots
[3] = target: type III mucin partially purified from porcine stomach (porcine); assay: as above
[4] = target: type I collagen from calf skin (calf) (UniProt P02453); assay: as above
[5] = target: laminin from the basement membrane of Engelbreth-Holm-Swarm mouse sarcoma (mouse) (UniProt P19137); assay: as above
[6] = target: type IV collagen from human placenta (human) (UniProt P02462); assay: as above
[7] = target: bovine serum albumin (bovine) (UniProt P02769); assay: as above

UniProt P02751, sequence (P02751 other isoform, or with tags, fused parts or gaps limits assumed): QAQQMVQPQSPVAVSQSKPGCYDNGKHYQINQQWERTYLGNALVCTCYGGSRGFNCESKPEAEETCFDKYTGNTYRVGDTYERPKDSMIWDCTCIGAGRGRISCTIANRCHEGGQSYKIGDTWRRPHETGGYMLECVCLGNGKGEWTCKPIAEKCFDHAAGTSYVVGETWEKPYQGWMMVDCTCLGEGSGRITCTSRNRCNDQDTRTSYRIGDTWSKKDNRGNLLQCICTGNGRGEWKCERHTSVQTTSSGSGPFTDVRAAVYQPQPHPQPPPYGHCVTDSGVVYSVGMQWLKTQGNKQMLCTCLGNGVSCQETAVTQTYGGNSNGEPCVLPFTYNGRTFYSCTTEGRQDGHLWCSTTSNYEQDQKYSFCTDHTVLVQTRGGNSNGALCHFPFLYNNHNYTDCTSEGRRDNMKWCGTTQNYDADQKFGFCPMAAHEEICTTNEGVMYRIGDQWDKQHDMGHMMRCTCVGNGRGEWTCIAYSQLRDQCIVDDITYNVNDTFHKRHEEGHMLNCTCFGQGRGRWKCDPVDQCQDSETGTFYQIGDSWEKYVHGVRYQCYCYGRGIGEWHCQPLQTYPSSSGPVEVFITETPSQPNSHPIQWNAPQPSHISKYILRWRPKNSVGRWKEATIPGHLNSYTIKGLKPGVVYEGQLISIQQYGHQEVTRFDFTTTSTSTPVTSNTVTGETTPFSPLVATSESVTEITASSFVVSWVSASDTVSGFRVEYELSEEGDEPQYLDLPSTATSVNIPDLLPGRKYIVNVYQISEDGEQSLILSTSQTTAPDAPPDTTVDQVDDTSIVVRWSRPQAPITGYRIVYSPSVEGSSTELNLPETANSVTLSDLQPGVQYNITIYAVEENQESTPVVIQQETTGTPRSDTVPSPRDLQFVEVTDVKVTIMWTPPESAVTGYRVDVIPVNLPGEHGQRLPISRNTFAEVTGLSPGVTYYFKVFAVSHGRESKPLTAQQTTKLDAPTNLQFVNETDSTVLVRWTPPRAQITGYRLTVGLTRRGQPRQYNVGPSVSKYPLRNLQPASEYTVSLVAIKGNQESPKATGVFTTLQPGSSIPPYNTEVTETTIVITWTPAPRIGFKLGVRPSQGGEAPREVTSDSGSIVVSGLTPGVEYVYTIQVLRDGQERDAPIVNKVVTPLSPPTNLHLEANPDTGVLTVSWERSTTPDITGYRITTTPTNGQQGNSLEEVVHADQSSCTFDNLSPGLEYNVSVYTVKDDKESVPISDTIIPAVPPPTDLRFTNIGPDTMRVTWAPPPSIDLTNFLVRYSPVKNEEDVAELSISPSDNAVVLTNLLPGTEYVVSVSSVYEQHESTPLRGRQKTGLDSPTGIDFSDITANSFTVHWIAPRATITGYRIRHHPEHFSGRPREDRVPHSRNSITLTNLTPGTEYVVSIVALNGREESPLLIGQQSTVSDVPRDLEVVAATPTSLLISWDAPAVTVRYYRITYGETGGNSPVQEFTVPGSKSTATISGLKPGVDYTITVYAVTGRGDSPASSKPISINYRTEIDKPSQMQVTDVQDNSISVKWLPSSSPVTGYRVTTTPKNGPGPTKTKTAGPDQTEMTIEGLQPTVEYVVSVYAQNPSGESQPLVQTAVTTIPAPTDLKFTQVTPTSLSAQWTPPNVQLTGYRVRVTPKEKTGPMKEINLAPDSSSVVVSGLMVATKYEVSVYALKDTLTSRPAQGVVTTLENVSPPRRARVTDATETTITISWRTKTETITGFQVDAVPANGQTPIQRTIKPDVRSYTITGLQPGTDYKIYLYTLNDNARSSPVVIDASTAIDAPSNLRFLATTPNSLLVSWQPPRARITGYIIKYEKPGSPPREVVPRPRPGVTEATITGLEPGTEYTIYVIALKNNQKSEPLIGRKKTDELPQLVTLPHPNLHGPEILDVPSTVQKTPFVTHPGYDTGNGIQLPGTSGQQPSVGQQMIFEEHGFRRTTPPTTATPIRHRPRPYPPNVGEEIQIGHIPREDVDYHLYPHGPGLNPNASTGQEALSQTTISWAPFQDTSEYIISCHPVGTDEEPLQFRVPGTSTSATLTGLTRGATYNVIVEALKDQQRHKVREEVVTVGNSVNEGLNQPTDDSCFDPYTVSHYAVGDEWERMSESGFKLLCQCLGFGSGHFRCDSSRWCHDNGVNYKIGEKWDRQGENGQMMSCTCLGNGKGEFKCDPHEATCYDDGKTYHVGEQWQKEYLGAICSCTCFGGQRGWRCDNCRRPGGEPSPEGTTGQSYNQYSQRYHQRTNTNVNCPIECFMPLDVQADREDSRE
UniProt P02462, sequence (P02462 173-1440, chain 1 of 2): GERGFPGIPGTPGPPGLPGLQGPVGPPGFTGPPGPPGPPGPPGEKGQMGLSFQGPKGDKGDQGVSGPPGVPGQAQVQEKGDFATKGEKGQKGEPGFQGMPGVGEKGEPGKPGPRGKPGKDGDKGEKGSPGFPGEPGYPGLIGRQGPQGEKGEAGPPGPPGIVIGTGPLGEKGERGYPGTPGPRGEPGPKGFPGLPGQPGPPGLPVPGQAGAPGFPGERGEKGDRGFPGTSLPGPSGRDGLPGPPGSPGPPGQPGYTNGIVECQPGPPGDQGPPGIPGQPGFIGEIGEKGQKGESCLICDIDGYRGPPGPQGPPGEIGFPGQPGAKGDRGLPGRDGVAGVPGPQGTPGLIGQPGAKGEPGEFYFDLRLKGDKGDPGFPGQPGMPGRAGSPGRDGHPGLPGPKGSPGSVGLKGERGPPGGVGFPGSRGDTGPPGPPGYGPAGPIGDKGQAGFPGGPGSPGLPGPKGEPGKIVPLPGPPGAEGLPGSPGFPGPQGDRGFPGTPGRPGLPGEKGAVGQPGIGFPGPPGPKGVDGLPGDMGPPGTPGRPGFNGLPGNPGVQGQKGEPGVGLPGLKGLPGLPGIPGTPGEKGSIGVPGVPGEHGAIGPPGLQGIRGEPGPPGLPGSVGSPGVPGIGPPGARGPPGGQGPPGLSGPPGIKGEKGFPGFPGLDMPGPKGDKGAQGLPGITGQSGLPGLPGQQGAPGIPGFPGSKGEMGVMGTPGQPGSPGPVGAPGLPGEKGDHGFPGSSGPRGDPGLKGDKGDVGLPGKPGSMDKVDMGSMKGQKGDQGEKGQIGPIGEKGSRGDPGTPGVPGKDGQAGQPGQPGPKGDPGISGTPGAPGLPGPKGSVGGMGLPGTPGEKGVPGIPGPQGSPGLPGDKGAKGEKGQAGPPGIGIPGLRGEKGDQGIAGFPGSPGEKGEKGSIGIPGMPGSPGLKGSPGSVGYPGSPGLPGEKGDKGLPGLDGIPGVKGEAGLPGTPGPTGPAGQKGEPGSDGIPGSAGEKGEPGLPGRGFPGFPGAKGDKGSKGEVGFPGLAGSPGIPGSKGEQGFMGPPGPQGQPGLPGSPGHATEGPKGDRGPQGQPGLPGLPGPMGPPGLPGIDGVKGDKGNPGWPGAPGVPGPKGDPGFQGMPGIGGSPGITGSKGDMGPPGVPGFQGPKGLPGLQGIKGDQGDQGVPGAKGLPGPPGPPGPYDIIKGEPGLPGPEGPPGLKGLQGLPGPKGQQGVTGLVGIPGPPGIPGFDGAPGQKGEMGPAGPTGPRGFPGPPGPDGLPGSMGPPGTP
UniProt P02462, sequence (P08572 184-1484, chain 2 of 2, further chain): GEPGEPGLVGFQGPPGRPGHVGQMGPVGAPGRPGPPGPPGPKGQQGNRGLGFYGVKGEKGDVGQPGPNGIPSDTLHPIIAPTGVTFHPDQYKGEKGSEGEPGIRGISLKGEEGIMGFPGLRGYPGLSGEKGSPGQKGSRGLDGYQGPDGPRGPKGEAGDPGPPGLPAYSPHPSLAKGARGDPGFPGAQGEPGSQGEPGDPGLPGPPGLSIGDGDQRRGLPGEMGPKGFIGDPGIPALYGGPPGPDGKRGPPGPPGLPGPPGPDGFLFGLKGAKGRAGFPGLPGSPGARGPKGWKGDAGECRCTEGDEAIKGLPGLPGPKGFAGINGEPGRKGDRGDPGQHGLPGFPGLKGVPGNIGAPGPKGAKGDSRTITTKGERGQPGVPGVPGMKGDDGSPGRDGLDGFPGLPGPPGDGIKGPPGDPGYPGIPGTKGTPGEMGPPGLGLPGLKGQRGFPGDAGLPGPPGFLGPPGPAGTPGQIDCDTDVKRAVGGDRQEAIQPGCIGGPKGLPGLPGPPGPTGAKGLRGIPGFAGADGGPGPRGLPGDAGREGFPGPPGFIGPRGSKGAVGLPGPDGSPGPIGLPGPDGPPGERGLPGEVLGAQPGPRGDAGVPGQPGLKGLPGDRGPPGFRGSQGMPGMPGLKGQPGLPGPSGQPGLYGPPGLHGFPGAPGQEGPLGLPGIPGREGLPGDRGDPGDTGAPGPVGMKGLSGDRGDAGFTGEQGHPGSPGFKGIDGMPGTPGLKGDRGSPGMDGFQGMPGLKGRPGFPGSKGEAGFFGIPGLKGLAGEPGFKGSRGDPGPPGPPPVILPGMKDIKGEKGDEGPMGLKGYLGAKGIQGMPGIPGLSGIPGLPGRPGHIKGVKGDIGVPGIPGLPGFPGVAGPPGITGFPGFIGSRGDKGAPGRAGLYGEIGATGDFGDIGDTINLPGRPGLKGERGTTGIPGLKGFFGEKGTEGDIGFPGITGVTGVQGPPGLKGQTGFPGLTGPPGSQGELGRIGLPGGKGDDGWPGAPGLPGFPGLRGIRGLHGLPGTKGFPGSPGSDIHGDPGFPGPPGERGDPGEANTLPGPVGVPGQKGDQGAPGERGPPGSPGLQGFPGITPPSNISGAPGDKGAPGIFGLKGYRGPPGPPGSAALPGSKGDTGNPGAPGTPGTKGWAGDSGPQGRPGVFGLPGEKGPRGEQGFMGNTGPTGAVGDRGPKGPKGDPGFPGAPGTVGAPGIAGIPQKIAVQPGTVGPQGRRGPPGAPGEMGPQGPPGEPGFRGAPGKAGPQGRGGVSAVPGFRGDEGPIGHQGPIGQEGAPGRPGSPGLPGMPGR

HN001 peptidase pepO
height of the HPLC peak of unhydrolysed αs1-casein(1-17) after incubation with pepO-transformed HN001 (non-transformed: approximately 250 mAU) [1]: the major peak of unhydrolysed αs1-casein(1-17) had a height of approximately 150 mAU

mucus adhesion promoting (mapA) protein of Lactobacillus reuteri
Relative mapA Binding (relative density) [2]: 0.67 | Relative mapA Binding (relative density) [3]: 2.57 | Relative mapA Binding (relative density) [4]: 1.02 | Relative mapA Binding (relative density) [5]: 0.83 | Relative mapA Binding (relative density) [6]: 0.78 | Relative mapA Binding (relative density) [7]: 0.76
